Experimental data published in patent publication US20070020327A1.
Like-named read-outs stand apart in the source and are kept apart here.

Experiments:
[1] = molecular target: HLA-A*0202 (human); assay: competitive inhibition of 125I-labelled standard peptide binding to purified HLA; details: remark: other sources report otherwise
[2] = molecular target: HLA-A*0201 (human); assay: as above; details: remark: other sources report otherwise
[3] = molecular target: HLA-A*0206 (human); assay: as above; details: remark: other sources report otherwise
[4] = molecular target: HLA-A*0301 (human); assay: competition with 125I-labelled standard peptide on purified HLA-A*0301, gel filtration
[5] = molecular target: HLA-A*0206 (human); assay: inhibition of 125I-labelled standard peptide binding to purified HLA-A*0206, gel filtration
[6] = molecular target: HLA-A*0203 (human); assay: inhibition of 125I-labelled standard peptide binding to purified HLA-A*0203, gel filtration
[7] = molecular target: HLA-A*0202 (human); assay: inhibition of 125I-labelled standard peptide binding to purified HLA-A*0202, gel filtration
[8] = molecular target: HLA-A*6802 (human); assay: inhibition of 125I-labelled standard peptide binding to purified HLA-A*6802, gel filtration
[9] = molecular target: HLA-A*0201 (human); assay: inhibition of 125I-labelled standard peptide binding to purified HLA-A*0201, gel filtration
[10] = molecular target: HLA-A*0101 (human); assay: competition with 125I-labeled standard peptide for purified HLA-A*0101, gel filtration
[11] = molecular target: HLA-A*0203 (human); assay: inhibition of 125I-standard peptide binding to purified HLA, gel filtration
[12] = molecular target: HLA-A*0202 (human); assay: as above
[13] = molecular target: HLA-A*0201 (human); assay: as above
[14] = molecular target: HLA-A*0206 (human); assay: as above
[15] = molecular target: HLA-A*0301 (human); assay: competition with 125I-labelled standard peptide for purified HLA-A*0301, gel filtration; ratio to the A*0301 standard peptide 941.12 [..] (11 nM)
[16] = molecular target: HLA-A*0202 (human); assay: competition with 125I-labeled probe peptide for purified HLA, gel filtration; details: remark: other sources report otherwise
[17] = molecular target: HLA-A*0203 (human); assay: competitive inhibition of 125I-labelled standard peptide binding to purified HLA, gel filtration; details: for IC50: remark: other sources report otherwise
[18] = molecular target: HLA-A*0101 (human); assay: competition with 125I-labelled standard peptide for purified HLA-A*0101, gel filtration
[19] = molecular target: HLA-A*6802 (human); assay: competition with 125I-labeled probe peptide for purified HLA, gel filtration; details: remark: other sources report otherwise
[20] = molecular target: HLA-A*0201 (human); assay: competitive inhibition of 125I-labelled standard peptide binding to purified HLA, gel filtration
[21] = molecular target: HLA-A*0206 (human); assay: competition with 125I-labeled probe peptide for purified HLA, gel filtration; details: remark: other sources report otherwise
[22] = molecular target: HLA-A*0202 (human); assay: competitive inhibition of 125I-labelled standard peptide binding to purified HLA, gel filtration
[23] = remark: other sources report otherwise

B1: Peptide 60.0220, … (PSA.187.V9) (peptide)
peptide: KVTKFMLCV
modifications: not checked
IC50 [1]: 518 nM
IC50 [2]: 69 nM
IC50 [3]: 128 nM

B2: … (PSM, position 305) (peptide)
peptide: LLEKMGGSA
modifications: not checked
binding affinity ratio (IC50 of standard peptide / IC50 of test peptide) [4]: 0.0006

B3: CALPEKPA (Kallikrein, position 234) (peptide)
peptide: CALPEKPA
modifications: not checked
binding affinity ratio (IC50 of standard peptide / IC50 of test peptide) [5]: -0.0001
binding affinity ratio (IC50 of standard peptide / IC50 of test peptide) [6]: -0.0001
binding affinity ratio (IC50 of standard peptide / IC50 of test peptide) [7]: -0.0001
binding affinity ratio (IC50 of standard peptide / IC50 of test peptide) [8]: -0.0001
binding affinity ratio (IC50 of standard peptide / IC50 of test peptide) [9]: -0.0001

B4: … (Kallikrein, position 145; PSA, position 141) (peptide)
peptide: EPALGTTCY
modifications: not checked
binding affinity ratio (IC50 of standard peptide / IC50 of test peptide) [10]: 0.0011

B5: PSA 4 … (peptide)
peptide: LTLSVTWIGAA
modifications: not checked
binding affinity ratio (IC50 standard peptide / IC50 test peptide) (ratio to standard peptide) [11, 23]: 0.037
binding affinity ratio (IC50 standard peptide / IC50 test peptide) (ratio to standard peptide) [12, 23]: 0.0014
binding affinity ratio (IC50 standard peptide / IC50 test peptide) (ratio to standard peptide) [13, 23]: 0.0008
binding affinity ratio (IC50 standard peptide / IC50 test peptide) (ratio to standard peptide) [14, 23]: 0.0025

B6: PAP 347 peptide … (peptide)
peptide: CSPSCPLER
modifications: not checked
binding affinity ratio (IC50 of standard peptide / IC50 of test peptide) [15]: 0.004

B7: … (PSM, position 701) (peptide)
peptide: AGESFPGIY
modifications: not checked
binding affinity ratio (IC50 of standard peptide / IC50 of test peptide) [10]: 0.004

B8: Peptide 1126.10 … (PSM.27) (peptide)
peptide: VLAGGFFLL
modifications: not checked
IC50 [16]: 0.2 nM

B9: PSA 128 LTDAVKVM (peptide)
peptide: LTDAVKVM
modifications: not checked
binding affinity ratio (IC50 standard peptide / IC50 test peptide) (ratio to standard peptide) [11]: 0.0002
binding affinity ratio (IC50 standard peptide / IC50 test peptide) (ratio to standard peptide) [12]: -0.0001
binding affinity ratio (IC50 standard peptide / IC50 test peptide) (ratio to standard peptide) [13]: 0.0001
binding affinity ratio (IC50 standard peptide / IC50 test peptide) (ratio to standard peptide) [14]: -0.0001

B10: … (Kallikrein, position 66) (peptide)
peptide: CLKKNSQVWL
modifications: not checked
binding affinity ratio (IC50 of standard peptide / IC50 of test peptide) [5, 23]: 0.0002
binding affinity ratio (IC50 of standard peptide / IC50 of test peptide) [8, 23]: -0.0001
binding affinity ratio (IC50 of standard peptide / IC50 of test peptide) [9, 23]: 0.0001

B11: CLKKNSQV (Kallikrein, position 66) (peptide)
peptide: CLKKNSQV
modifications: not checked
binding affinity ratio (IC50 of standard peptide / IC50 of test peptide) [5]: -0.0001
binding affinity ratio (IC50 of standard peptide / IC50 of test peptide) [6]: 0.0006
binding affinity ratio (IC50 of standard peptide / IC50 of test peptide) [7]: 0.0006
binding affinity ratio (IC50 of standard peptide / IC50 of test peptide) [8]: -0.0001
binding affinity ratio (IC50 of standard peptide / IC50 of test peptide) [9]: 0.0001

B12: peptide 1419.07 … (HuK2.165) (peptide)
peptide: FLRPRSLQCV
modifications: not checked
IC50 [17]: 4 nM

B13: PSA 4 … (peptide)
peptide: LTLSVTWIGA
modifications: not checked
binding affinity ratio (IC50 standard peptide / IC50 test peptide) (ratio to standard peptide) [11, 23]: 0.082
binding affinity ratio (IC50 standard peptide / IC50 test peptide) (ratio to standard peptide) [12, 23]: 0.045
binding affinity ratio (IC50 standard peptide / IC50 test peptide) (ratio to standard peptide) [13, 23]: 0.0018
binding affinity ratio (IC50 standard peptide / IC50 test peptide) (ratio to standard peptide) [14, 23]: 0.011

B14: … (PAP, position 70) (peptide)
peptide: LTQLGMEQHY
modifications: not checked
binding affinity ratio (IC50 of standard peptide / IC50 of test peptide) [18, 23]: 0.62

B15: … (PSM, position 143) (peptide)
peptide: LFEPPPPGY
modifications: not checked
binding affinity ratio (IC50 of standard peptide / IC50 of test peptide) [10]: 0.001

B16: Kallikrein 123 … (peptide)
peptide: LLRLSEPAKI
modifications: not checked
binding affinity ratio (IC50 standard peptide / IC50 test peptide) (ratio to standard peptide) [13, 23]: 0.003
binding affinity ratio (IC50 standard peptide / IC50 test peptide) (ratio to standard peptide) [14, 23]: 0.001

B17: … (PAP, position 306) (peptide)
peptide: LLPPYASCH
modifications: not checked
binding affinity ratio (IC50 of standard peptide / IC50 of test peptide) [4]: 0.001

B18: PSM 196 peptide … (peptide)
peptide: CSGKIVIARY
modifications: not checked
binding affinity ratio (IC50 of standard peptide / IC50 of test peptide) [15, 23]: 0.06

B19: PSA 162 … (peptide)
peptide: LTPKKLQCVDL
modifications: not checked
binding affinity ratio (IC50 standard peptide / IC50 test peptide) (ratio to standard peptide) [11, 23]: 0.0074
binding affinity ratio (IC50 standard peptide / IC50 test peptide) (ratio to standard peptide) [12, 23]: 0.0087

B20: Peptide 1126.16 … (PSM.667) (peptide)
peptide: QLMFLERAFI
modifications: not checked
IC50 [19]: 30 nM

B21: … (PSM, position 725) (peptide)
peptide: WGEVKRQIY
modifications: not checked
binding affinity ratio (IC50 of standard peptide / IC50 of test peptide) [18]: 0.001

B22: … (Kallikrein, position 234) (peptide)
peptide: CALPEKPAVYT
modifications: not checked
binding affinity ratio (IC50 of standard peptide / IC50 of test peptide) [8, 23]: -0.0002
binding affinity ratio (IC50 of standard peptide / IC50 of test peptide) [9, 23]: 0.0008

B23: Peptide 1419.25, … (PSA.1) (peptide)
peptide: VVFLTLSVTWI
modifications: not checked
IC50 [1]: 159 nM
IC50 [2]: 385 nM
IC50 [3]: 2850 nM

B24: peptide 1419.14 … (HuK2.175) (peptide)
peptide: SLHLLSNDMCA
modifications: not checked
IC50 [17]: 73 nM
IC50 [20, 23]: 72 nM

B25: … (PSM, position 116) (peptide)
peptide: LLSYPNKTH
modifications: not checked
binding affinity ratio (IC50 of standard peptide / IC50 of test peptide) [4]: 0.0006

B26: … (PSM, position 66) (peptide)
peptide: KAENIKKFLY
modifications: not checked
binding affinity ratio (IC50 of standard peptide / IC50 of test peptide) [10]: 0.0001

B27: … (Kallikrein, position 198) (peptide)
peptide: CAGLWTGGKDT
modifications: not checked
binding affinity ratio (IC50 of standard peptide / IC50 of test peptide) [5]: -0.0001
binding affinity ratio (IC50 of standard peptide / IC50 of test peptide) [7]: 0.0003
binding affinity ratio (IC50 of standard peptide / IC50 of test peptide) [8]: -0.0002
binding affinity ratio (IC50 of standard peptide / IC50 of test peptide) [9]: 0.0001

B28: … (PSM, position 363) (peptide)
peptide: RGAVEPDRY
modifications: not checked
binding affinity ratio (IC50 of standard peptide / IC50 of test peptide) [18]: 0.0001

B29: Peptide 1129.08 … (PSM.711) (peptide)
peptide: ALFDIESKV
modifications: not checked
IC50 [16]: 0.7 nM

B30: Peptide 1389.22 … (PSM.168.L2) (peptide)
peptide: GLPEGDLVYV
modifications: not checked
IC50 [19]: 964 nM
IC50 [21]: 112 nM

B31: … (PSM, position 558) (peptide)
peptide: TYELVEKFY
modifications: not checked
binding affinity ratio (IC50 of standard peptide / IC50 of test peptide) [18]: 0.001

B32: Peptide 60.0216, … (PSA.3.V9) (peptide)
peptide: FLTLSVTWV
modifications: not checked
IC50 [1]: 8.4 nM

B33: … (PSM, position 4) (peptide)
peptide: LLHETDSAVA
modifications: not checked
binding affinity ratio (IC50 of standard peptide / IC50 of test peptide) [4]: 0.0005

B34: … (Kallikrein, position 132) (peptide)
peptide: ITDVVKVLGL
modifications: not checked
binding affinity ratio (ratio to standard peptide) [17]: 0.0088
binding affinity ratio (ratio to standard peptide) [22]: 0.0084
binding affinity ratio (ratio to standard peptide) [20]: 0.0003

B35: Peptide 1126.06 … (PSM.662) (peptide)
peptide: RMMNDQLMFL
modifications: not checked
IC50 [21]: 40 nM

B36: LPERPSLY (PSA, position 232) (peptide)
peptide: LPERPSLY
modifications: not checked
binding affinity ratio (IC50 of standard peptide / IC50 of test peptide) [10]: 0.0002

B37: PSM 710 peptide … (peptide)
peptide: DALFDIESK
modifications: not checked
binding affinity ratio (IC50 of standard peptide / IC50 of test peptide) [15]: 0.0006

B38: Kallikrein 178 … (peptide)
peptide: LLSNDMCARA
modifications: not checked
binding affinity ratio (IC50 standard peptide / IC50 test peptide) (ratio to standard peptide) [11, 23]: 0.028
binding affinity ratio (IC50 standard peptide / IC50 test peptide) (ratio to standard peptide) [12, 23]: 0.08
binding affinity ratio (IC50 standard peptide / IC50 test peptide) (ratio to standard peptide) [13, 23]: 0.003
binding affinity ratio (IC50 standard peptide / IC50 test peptide) (ratio to standard peptide) [14, 23]: 0.002

B39: PSA 4 LTLSVTWI (peptide)
peptide: LTLSVTWI
modifications: not checked
binding affinity ratio (IC50 standard peptide / IC50 test peptide) (ratio to standard peptide) [11]: 0.0006
binding affinity ratio (IC50 standard peptide / IC50 test peptide) (ratio to standard peptide) [12]: -0.0001
binding affinity ratio (IC50 standard peptide / IC50 test peptide) (ratio to standard peptide) [13]: 0.0003
